Results published in publication PMC11508082.

Target: T1, PdhR-his (Escherichia coli O157:H7 (EHEC) TUV93-0?) (UniProt P0ACM1)
T1 sequence: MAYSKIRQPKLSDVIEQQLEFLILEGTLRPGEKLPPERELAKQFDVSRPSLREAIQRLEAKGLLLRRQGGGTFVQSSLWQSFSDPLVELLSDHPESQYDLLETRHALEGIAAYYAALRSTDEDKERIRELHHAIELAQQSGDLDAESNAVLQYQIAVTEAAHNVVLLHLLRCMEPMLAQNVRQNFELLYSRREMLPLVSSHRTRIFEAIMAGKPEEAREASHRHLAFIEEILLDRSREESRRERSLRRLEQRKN
Assay: EMSA

## TGTGCACAGTTTCATGATTTCAATCAAAACCTGTATGGACATAAGGTGAATACTTTGTTACTTTAGCGTCACAGACATGAAATTGGTAAGACCAATTGACTTCGGCAAGTGGCTTAAGACAGGAACTCATGGCCTACAGCAAAATCCGCCAACCAAAACTCTCCGATGTGATTGAGCAGC (double strand) [PpdhR promoter probe]
  binding: binds

## GGTTCCGATAGAAAGTCCTGGAACAACCGGACCAAAAAGAAAAACCTACCGAGTTGGTAATGGTATTGTGGGACAGTCTAATATCTGGAACGAAATGATCATGAGGCGGAAAAAGGAGAGTTA (double strand) [grlA promoter probe]
  binding: no binding
